Assay: yeast display, Sf9 membrane polyspecificity reagent, FACS + sequencing; frameworks hold sequencing errors
Procedure, shortened: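 After 36–48 hours of galactose induction, yeast (Saccharomyces cerevisiae BJ5465) displaying a synthetic nanobody library were stained at 4 °C for 1 hour with 10% biotinylated, detergent-solubilized Sf9 membrane reagent. Streptavidin microbeads enriched the stained cells before FACS sorting into low and high (top ~1%) gates on anti-HA and streptavidin fluorescence. Each clone's polyreactivity label reflects its gate of origin.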

| Sequence | polyreactivity (PSR sort gate) |
| --- | --- |
| QVQLVESGGGLVQAGGSLRLSCAASGRIFSSNAMGWYRQAPGKEREFVAAISWRTGSTYYADSVKGRFTISRDNAKNTVYLQMNSLKPEDTAVYYCNKRTGSYGYPYYYWGQGTQVTVSS | high polyreactivity |
| QVQLEESGGGLVQAGGSLRISCAASGSTFWRYTMGWYRQEPGKERELVAAISWSGDGTYYADSVKGRFTISRDNAKNTVYLQMNSLKPEDTAVYYCAAEVYYANGYDYDYWGQGTQVTVSS | low polyreactivity |
| QVQLVESGGGLVQAGGSLRLSCAASGLTFSGNTMGWYRQAPGKVRELVAAISSDGSTNYADSVKGRFTISRDNAKNTVYLQMNSLKPEDTAVYYCNARVRYYFAFWRDYWGQGTQVTVSS | low polyreactivity |
| QVQLVESGGGLVQAGGSLRLSCAASGRTYGVYAMGWYRQAPGKERELVATITLSGGRTYYAHSVKGRFTISRDNAKNTVYLEMNSLKPEDSAVYYCNARFSYYYGFRASRLDYWGQGTQVNVSS | high polyreactivity |
| QVQLVESGGGLVQAGGSLRLTCAASGLTFSYNAMGWYRQAPGKERELVAAITVSGGRTYYADSVKGRFTISRDNAKNTVYLQMNSLKPEDTAVYYCNADYDEGYYGYLRYDYDYWGQGTQVTVSS | high polyreactivity |
| QVQLVESGGGLVQAGGSLRLSCAASGRTFKWYPMGWYRQATGKERELVAGITSTGTTSYADSVKGRFTISRDNAKNTVYLQMNSLKPEDTAVYYCNTYYRWWKYDYWGQGTQVTVSS | high polyreactivity |
| QVQLVESGGGLVQAGGSLRLSCAASGRIFNSYAMGWYRQAPGKERELVAAISSGGSTYYADSVKGRFTFSRDNAKNTVYLQMNSLKPEDTAVYYCADRIWTGRGRKLGYGYDYWGQGTQVTVSS | low polyreactivity |
| QVQLVESGGGLVQAGGSLSLSCAASGRNFLRNAMGWYRKAPGKERELVAAIKSGGNTYYADSVKGRFTISRDNAKITVYLQMNSLKPEYTAVYYCADRQYGFASYRMDYWGHGTQVTVSS | high polyreactivity |
| QVQLVESGGGLVQAGGSLRISCAASGRSFWTYAMGWYRQAPGKERELVAAITWRGGSTSYADSVTGRFTISRDTAKNTVYLQMHSLKPEDTAVYYCAADTYSYLRGTYEYDYWGQGTQVTVSS | high polyreactivity |
| QVQLVESRGGLVQAGGSLRLSCAASGSIFGRNAMGWYRQAPGKERELVAAIRSGDSTNYADSVKGRFTISRDNAKNTVYLQMNSLKPEDTAVYYCAADYIFWHRRDKKSVVMDYWGQGTQVTVSS | low polyreactivity |
| QVQLVESGGGLVQAGGSLRLSCAASGLTFSCYAMGWYRQAPGKERELVASINYSGANTYYADSVKGRFTISRDNAKNTVYLQMNSLKPEDTAVYYCNTRRRRYQNERVTYDYWGQGTQVTVSS | high polyreactivity |
| QVQLVESGGGLVQAGGSLRLSCAASGITFWYYAMGWYRQEPGKERELVAAISSSGGRTTYADSVKGRFTISRDNAKNTVYLQMNSLKPEDTAVYYCNADRRRYQHRRGSSVYLYDYWGQGTQVTVSS | high polyreactivity |
| QVQLVESGGGLVQAGGSLRLSCAASGSTFRTYAMGWYRQAPGTEREFVAVISASGGSTYYADSVKGRFTISRDNAKNTVYLQMNSQKPEDTAVYYCNAGRPRFYRSRWYYYGYGYWGQGTQVTVSS | high polyreactivity |
| QVQLVDSWGGLVQAGGSLRLSCAASGFIFPYNTMGWYRQAPGKERELVAAISSGGSTYYADSVKGRFTISRDNAKNTVYLQMNSLKPEDTAVYYCAVRGRRSPYGYWGQGTQVTVSS | high polyreactivity |
| QVQLVESGGGLVQAGGSLRLSCAASGFTFTAYAMGWYRQAPGKERELVAAISSGGSTYYADSVKGRFTISRDNAKNTVYLQMNSLKPEDTAVYYCSAVGVYTVKRDYWGQGTQVTVSS | low polyreactivity |
| QVQLVESGGGLVQAGGSLRLSCAASGLIFPRYAMGWYRQAPGKERELVAAISSGGSTNYADSVKGRFTISRDNAKNTVYLQMNSLKPEDTAVYYCAASSYYYRFSRWPYYHRYYWGQGTQVTVSS | low polyreactivity |
| QVQLVESGGGLVQAGGSLRLSCAASGLIFHTYAMGWYRQAPGKERELVAAIRGGGSTNYADSVKGRFTISRDNAKNTVYLQMKSLKPEDTAVYYCNATWNLFPGVLDRYDYWGQGTQVTVSS | low polyreactivity |
| QVQLVESGGGLVQAGGSLRLSCAASGYIFGAYAMGWYRQAPGKERELVAGITASGDSTYYADSVKGRFTISRDNAKNTVYLQMNSLKPEDTAVYYCNAQPDIGLYDRQWKEPYEYWGQGTQVTVSS | low polyreactivity |
| QVQLVDSVGGLVQAGGSLRLSCAASGFTFYYNAMGLYRQAPGKERELVAAITSSGGSTYYADSVKGRFTISRDNAKNTVYLQMNSLKPEDTAVYYCAAVVYYRGYTYNYWGQGTQVTVSS | high polyreactivity |
| QVQLVESGGGLVQAGGSLRLSCAPSGIIFIRYAMGWYRQAPGKERELVAAISWRGGSTYYADSVKGRFTISRDNAKNTVYLQMNSLKPEDTAVYYCAAGYFSYRRYDYWGQGTQVTVSS | high polyreactivity |
| QVQLVESGGGLVQAGGSLRLSCAASGRTLSYYAMGWYRQAPGKHRELVAAITYRAGRTYYADSVKGRFTISRDNAKYTVYLQLNSLKPEVTAVYYCYAVKSTGYGYWGQGTQVTVSS | high polyreactivity |
| QVQLVESGGGLVQAGGSLRLSCAASGSIFGIYAMGWYRQAPGKERELVATITYSGGTTYADSVKGRFTISRDNAKNTVYLQMNSLNPEDTAVYYCAAGGDYAYDCWGQGTQVTVSS | low polyreactivity |

| Sequence | polyreactivity (PSR sort gate) |
| --- | --- |
| QVQLVESGGGLVQAGGSLRLICAASGRTYLWYTMGWYRQAPGKEREFVAAIWSGDSTYYADSVKGRFTISRDNAKNTVYLQMNSLKPEDTAVYYCAARRFRGSYYWGQGTQVTVSS | high polyreactivity |
| QVQLVESGGGLVQAGGSLRLSCAASGSTFALYPMGCYRQAPGKERELVAGITIDGSTNYADSVKGRFTISRDNAKNTVYLQMNSLKPEDTAVYYCNADSYKYPLLKYRSDYWGQGTQVTVSS | low polyreactivity |
| QVQLVESGGGLVQAGGSLRLSCAASGSTFIAYTMGWYRQAPGKERELVAAITWSGGGTYYADSVKGRFTISRDNAKNTVYLQMNSLKPEDTAVYYCAKRGWRGYYWGQGTQVTVSS | high polyreactivity |
| QVQLVESGGGLVQAGGSLRLSCAASGFTFGTNAMGWYSQAPGKERELVAAISGRVGSTYYADSVKGRFTISRDNAKNTVYFLMNSLKPEDTAVYYCAADTWKTWSPYLYYTYDSWGQGTQVTVSS | low polyreactivity |
| QVQLVESGGALVQAGRSLRLSCAASGRTFWVYAMGWYRQAPGKERELVAAIRWSAGTTYYADSVKGRFTISRDNAKNTVYLQMNSLKPEDTAVYYCAKRRYTAISYGYWGQGTKVTVSS | high polyreactivity |
| QVQLVESVGGLVQAGGSLRLSCAASGSIRYYAMGWYRQAPGKERELVAAISSRGTNTYYADSVKGRFTISRDNAKNTVYLQMNSLKPEDTAVYYCNAVVGLGYNYWGQGTQVTVSS | high polyreactivity |
| QVQLVESGGGLVQAGGSLRLSCAASGRTFLWNAMGWYRQAPGKERELVARINLSGGRTYYADSVKGRFTISRDNAKNTVYLQMNSLKPEDTAVYYCAATVVRYRRDSWGQGTQVTVSS | low polyreactivity |
| QVQLVESGGGLVQAGGSLRLSCAASGSTFPLYAMGWYRQAPGKERELVAAITSGGGNTYYADSVKGRFTISRDNAKNTVYLQMNRLKPEDTAVYYCAAVGGYKSYYSYEYDYWGQGTQVTVSS | low polyreactivity |
| QVQLVESGGGLVQAGGSLRLSCAASGSIFDNAMGWYRQAPGKERELVAAISLSGSRTYYADSVKGRFTISRDNAKNTVYLQMNSLKPEDTAVYYCNTELVYYSTYDYWGQGTQVTVSS | low polyreactivity |
| QFQLVESGGGLVQAGGSLRLSFAPSGSTFSYYAMGWYRPAPGKERELVAAISSRGGSTYYADSVKGRFTISRYNAKNTFYFQMNCLKAEDTDVYYSAAVLRGPDPTSTYYSWGQGTQVTVSS | high polyreactivity |
| QVQLVESGGGIVQAGGSLRLSCASSGLIFKFYAMGWYRQAPGKERELVASIRRSGDNTYYADSVKRRFTISRDNAKNTVYLQMKSLKPEDTAVYYCAAELLYDYVEYYYWGQGTQVTVAS | high polyreactivity |
| QVQLVESGGGLVQAGGSLRLSCAASGSIFYLNARGWYRQAPGKERELVASINRGGITYYADSVKGRFTISRDNAKNTVYLQMNSLKPEDTAVYYCAARSPYVSYRSNYYYWGQGTQVTVSS | high polyreactivity |
| QVQLVESGGGLVQARGSLRLSCAASGSTLSPYVMGWYRQAPGKERELVATISRSGGRTYYADSVKGRFTISRDNAKNTVYLQMNSLKPEDTAVYYCAARTYYWGALIVSYDYWGQGTQGTVSS | low polyreactivity |
| QVQLVESGGGLVQAGGSLRLRCAASGRTFYKNTMGWYRQAPGKERELVATISQRGGATYYADSVKGRFTISRDNAKNTVYLQMTSLKPEDTAVYYCNARKYTQSIHYDYWGQGTQVTVSS | high polyreactivity |
| QVQLVESGGGLVQAGGSLRLSCAASGYTFQKYAMGWYIQAPGKERELVAAITRSGTRTYYADSVKGRFTISRDNAKNTVYLQMNSLKPEDTAVYYCAAETYYSIYDYWGQGTQVTVSS | high polyreactivity |
| QVQLVESGGGLVQAGGSLRLSCAAYGITFKGNAMGWYRQAPGKERELVAAIRWRAGRTYYADSVKGRFTISRDNAKNTVYLQMNSLKPEDTAVYDCAATYSYLWPEYDYWGQGTQVTVSS | high polyreactivity |
| QVQLVESGGGLVQAGGSLRLSCAASGIIFWWYAMGGDRQAPGKERELVAAISGTGGSTYYADSVKGRFTISRDNAKNTVYLQMNTLKPEDTAVSYCPARGTSSSYYDYDYWGQGTQVTVSS | low polyreactivity |
| QVQLVESGGGLVQAGGSLRLSCAASGRIFVWNAMGWYRQAPGKERELVAAITSSGGNTYYADSVKGRFTISRDNAKNNVYLQMNSLKQEDTAVYYCAAAGGAWARYRFNYWGQGTQVTVSS | high polyreactivity |
| QVQLVESGGGLVQAGRTLRLSCAATGFIIVHNAMGWYRQPPGKERELVAAITSRGRTYYADSVKGRFTISRDHAKNTVYLQMNSLKPEDTAVYYCNPYWRGDYRYDSWGQGTQVTVSS | high polyreactivity |
| QVQLVESGGGLVQAGGSLRLSCAAYRFIFATNTMGCYRQAPGKETELVAASSTYYADSVNGRFTISRDNAKNTVYLQMNSLKPEDNAVYYCNADRDSYIGFVDWAGEYWGQGTQVTVSS | low polyreactivity |
| QVQLVESGGGLVQAGGSLRLSCAASGRTFADNAMGWYRQAPGKERELVASISSGTSTNYADSVKGRFTISRDNAKNTVYLQMNSLKPEDTAVYYCNAYGPIWYTAVLGVGRYYGWTDYWGQGTQVTVSS | low polyreactivity |

From the nanobody polyreactivity screen of Harvey et al. (2022)
